Reference: patent US20200277359A1

Target: Recombinant CHIKV E2 ectodomain protein (corresponding to the CHIKV-LR2006 strain) (Chikungunya virus strain LR2006)
Experiment: ELISA on coated E2 ectodomain

murine CHK-152 (antibody)
OD450: < 0.1 od
